In IntAct's records for PubMed 15064750:

B1: Proliferation-associated protein 2G4 (Homo sapiens), Q9UQ80 (parent)
chain: MSGEDEQQEQTIAEDLVVTKYKMGGDIANRVLRSLVEASSSGVSVLSLCEKGDAMIMEETGKIFKKEKEMKKGIAFPTSISVNNCVCHFSPLKSDQDYILKEGDLVKIDLGVHVDGFIANVAHTFVVDVAQGTQVTGRKADVIKAAHLCAEAALRLVKPGNQNTQVTEAWNKVAHSFNCTPIEGMLSHQLKQHVIDGEKTIIQNPTDQQKKDHEKAEFEVHEVYAVDVLVSSGEGKAKDAGQRTTIYKRDPSKQYGLKMKTSRAFFSEVERRFDAMPFTLRAFEDEKKARMGVVECAKHELLQPFNVLYEKEGEFVAQFKFTVLLMPNGPMRITSGPFEPDLYKSEMEVQDAELKALLQSSASRKTQKKKKKKASKTAENATSGETLEENEAGD

Variants of: B1
Settings: with npm_human NPM1, P06748
Sequence of npm_human NPM1, P06748 (P06748 whole entry): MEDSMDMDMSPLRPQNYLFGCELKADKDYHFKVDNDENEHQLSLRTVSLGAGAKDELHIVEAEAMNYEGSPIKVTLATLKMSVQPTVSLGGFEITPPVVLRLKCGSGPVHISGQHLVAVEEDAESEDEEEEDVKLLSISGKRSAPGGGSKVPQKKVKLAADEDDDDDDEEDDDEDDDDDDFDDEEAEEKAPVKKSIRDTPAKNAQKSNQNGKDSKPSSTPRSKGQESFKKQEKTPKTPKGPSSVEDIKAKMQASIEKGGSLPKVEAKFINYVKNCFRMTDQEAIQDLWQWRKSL
For R364A;K365A, the “effect of a mutation on the interaction” value was “decreasing interaction”.
With K20A;K22A the “effect of a mutation on the interaction” value was “disrupting interaction”.
